Measured values from patent US20190100594A1.
Like-named read-outs stand apart in the source and are kept apart here.

Legend:
[1] = target: GITR expressed on CHO cells (Homo sapiens (Human)) (UniProt Q9Y5U5); experiment: flow cytometry on GITR-expressing CHO cells, MFI-FL4
[2] = target: GITR expressed on CHO cells (Homo sapiens (Human)) (UniProt Q9Y5U5); experiment: as above; remark: listed apart in the source

Sequence of GITR expressed on CHO cells (Homo sapiens (Human)) (Q9Y5U5 26-241 limits assumed): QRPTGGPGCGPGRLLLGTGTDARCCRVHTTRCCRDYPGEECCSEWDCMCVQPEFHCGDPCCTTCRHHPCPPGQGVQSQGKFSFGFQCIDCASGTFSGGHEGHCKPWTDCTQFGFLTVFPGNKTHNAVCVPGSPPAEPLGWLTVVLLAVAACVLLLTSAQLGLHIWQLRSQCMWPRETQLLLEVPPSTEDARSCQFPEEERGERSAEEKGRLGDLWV

TRX-518 (antibody)
EC50 (read off the curve) [1]: 3 nM | EC50 (read off the curve) [2]: 1 nM
